Laboratory results as given in EP4588489A1, “LINKER FOR ANTIBODY-DRUG CONJUGATE AND USE THEREOF” (priority 2022, dated 2024).
Where two headings read alike, the source gives them in different places.

Legend:
Assay in all cases: cell-based or functional assay
TROP2 [1] = target: T1, TROP2 (UniProt P09758 27-323, limits assumed)
T1 sequence (looked up): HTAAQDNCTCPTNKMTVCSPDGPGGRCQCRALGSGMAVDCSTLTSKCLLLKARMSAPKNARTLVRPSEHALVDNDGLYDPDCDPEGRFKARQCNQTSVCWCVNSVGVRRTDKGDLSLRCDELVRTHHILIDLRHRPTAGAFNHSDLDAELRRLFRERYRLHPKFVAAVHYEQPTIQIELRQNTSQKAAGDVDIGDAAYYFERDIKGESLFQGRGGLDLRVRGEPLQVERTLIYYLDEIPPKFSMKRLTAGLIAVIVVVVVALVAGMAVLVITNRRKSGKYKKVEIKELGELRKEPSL

TROP2 [2] = target: T1, TROP2; remark: listed apart in the source
TROP2 [3] = target: T1, TROP2; remark: listed apart in the source
TROP2 [4] = target: T1, TROP2; remark: listed apart in the source

B1: hRS7-C6-D4 (antibody, human IgG1, kappa, V domains shown)
VH: QVQLQQSGSELKKPGASVKVSCKASGYTFTNYGMNWVKQAPGQGLKWMGWINTYTGEPTYTDDFKGRFAFSLDTSVSTAYLQISSLKADDTAVYFCARGGFGSSYWYFDVWGQGSLVTVSS
VL: DIQLTQSPSSLSASVGDRVSITCKASQDVSIAVAWYQQKPGKAPKLLIYSASYRYTGVPDRFSGSGSGTDFTLTISSLQPEDFAVYYCQQHYITPLTFGAGTKVEIKR
modifications: linker-drug comp6 on cysteines of reduced interchain disulfides; DAR 3.49
For B1, the “EC50(nM), inhibition of BxPC-3 cell proliferation” value (“EC50(nM), inhibition” for short) (TROP2 [1]) was 0.393 nM and the “Relative activity (%), inhibition of BxPC-3 cell proliferation” value (shortened to “Relative activity (%), inhibition”) (TROP2 [1]) was 80%.

B2: hRS7-CPD6-NC-D4 (antibody, human IgG1, kappa, V domains shown)
VH: B1 VH
VL: B1 VL
modifications: linker-drug CPD6 on cysteines of reduced interchain disulfides; label D4
With B2 the “EC50(nM), inhibition” value (TROP2 [2]) was 0.341 nM and the “Relative activity (%), inhibition” value (TROP2 [2]) was 111%.

B3: hRS7-C9-D4 (antibody, human IgG1, kappa, V domains shown)
VH: B1 VH
VL: B1 VL
modifications: linker-drug comp9 on cysteines of reduced interchain disulfides; DAR 3.54
B3 was tested, and the “EC50(nM), inhibition” value (TROP2 [1]) was 0.377 nM and the “Relative activity (%), inhibition” value (TROP2 [1]) was 108%.

B4: DXD (deruxtecan)-conjugated sacituzumab (hRS7-DXD) (antibody, human IgG1, kappa, V domains shown)
VH: B1 VH
VL: B1 VL
modifications: deruxtecan (DXD) on cysteines of reduced interchain disulfides; label D4
With B4 the “Relative activity (%), inhibition” value (TROP2 [1]) was 100%, the “EC50(nM), inhibition” value (TROP2 [3]) was 0.156 nM and the “Relative activity (%), inhibition” value (TROP2 [3]) was 100%. The “EC50(nM), inhibition” value (TROP2 [2]) was 0.38 nM and the “Relative activity (%), inhibition” value (TROP2 [2]) was 100%.

B5: hRS7-C8-D4 (antibody, human IgG1, kappa, V domains shown)
VH: B1 VH
VL: B1 VL
modifications: linker-drug comp8 on cysteines of reduced interchain disulfides; DAR 3.52
In the case of B5, the “EC50(nM), inhibition” value (TROP2 [1]) is reported as 0.323 nM and the “Relative activity (%), inhibition” value (TROP2 [1]) is reported as 97%.

B6: ADC03 (hRS7 conjugated to CPD1) (antibody, human IgG1, kappa, V domains shown)
VH: B1 VH
VL: B1 VL
modifications: linker-drug CPD1 on cysteines of reduced interchain disulfides; average DAR 3.82
With B6 the “A431 IC50/µg/mL (in vitro cell viability assay)” value (TROP2 [4]) was 0.074 µg/mL.

B7: hRS7-CPD2-NC-D4 (antibody, human IgG1, kappa, V domains shown)
VH: B1 VH
VL: B1 VL
modifications: linker-drug CPD2 on cysteines of reduced interchain disulfides; label D4
For B7, the “EC50(nM), inhibition” value (TROP2 [2]) was 0.327 nM and the “Relative activity (%), inhibition” value (TROP2 [2]) was 147%.

B8: ADC05 (hRS7 conjugated to CPD3) (antibody, human IgG1, kappa, V domains shown)
VH: B1 VH
VL: B1 VL
modifications: linker-drug CPD3 on cysteines of reduced interchain disulfides; average DAR 3.99
B8 was tested, and the “A431 IC50/µg/mL (in vitro cell viability assay)” value (TROP2 [4]) was 0.024 µg/mL.

B9: hRS7-CPT005-D4 (antibody, human IgG1, kappa, V domains shown)
VH: B1 VH
VL: B1 VL
modifications: linker-drug CPT005 on cysteines of reduced interchain disulfides; label D4
B9 was tested, and the “EC50(nM), inhibition” value (TROP2 [3]) was 0.101 nM and the “Relative activity (%), inhibition” value (TROP2 [3]) was 155%.

B10: hRS7-CL2A-SN38-D8 (antibody, human IgG1, kappa, V domains shown)
VH: B1 VH
VL: B1 VL
modifications: CL2A-SN38 on cysteines of reduced interchain disulfides; label D8
For B10, the “EC50(nM), inhibition” value (TROP2 [3]) was 0.259 nM and the “Relative activity (%), inhibition” value (TROP2 [3]) was 100%.

B11: hRS7-CPD5-NC-D4 (antibody, human IgG1, kappa, V domains shown)
VH: B1 VH
VL: B1 VL
modifications: linker-drug CPD5 on cysteines of reduced interchain disulfides; label D4
B11 was tested, and the “EC50(nM), inhibition” value (TROP2 [2]) was 0.478 nM and the “Relative activity (%), inhibition” value (TROP2 [2]) was 79.6%.

B12: hRS7-CPD3-NC-D4 (antibody, human IgG1, kappa, V domains shown)
VH: B1 VH
VL: B1 VL
modifications: linker-drug CPD3 on cysteines of reduced interchain disulfides; label D4
For B12, the “EC50(nM), inhibition” value (TROP2 [2]) was 0.309 nM and the “Relative activity (%), inhibition” value (TROP2 [2]) was 156%.

B13: hRS7-CPD1-NC-D4 (antibody, human IgG1, kappa, V domains shown)
VH: B1 VH
VL: B1 VL
modifications: linker-drug CPD1 on cysteines of reduced interchain disulfides; label D4
With B13 the “EC50(nM), inhibition” value (TROP2 [2]) was 0.468 nM and the “Relative activity (%), inhibition” value (TROP2 [2]) was 103%.

B14: hRS7-CPT009-D4 (antibody, human IgG1, kappa, V domains shown)
VH: B1 VH
VL: B1 VL
modifications: linker-drug CPT009 on cysteines of reduced interchain disulfides; label D4
For B14, the “EC50(nM), inhibition” value (TROP2 [3]) was 0.353 nM and the “Relative activity (%), inhibition” value (TROP2 [3]) was 50.7%.
